Measured values published in doi:10.1101/854158 (bioRxiv, 2019).

Biological target: T1, FANCC (human, UniProt Q00597 1-558)
T1 sequence: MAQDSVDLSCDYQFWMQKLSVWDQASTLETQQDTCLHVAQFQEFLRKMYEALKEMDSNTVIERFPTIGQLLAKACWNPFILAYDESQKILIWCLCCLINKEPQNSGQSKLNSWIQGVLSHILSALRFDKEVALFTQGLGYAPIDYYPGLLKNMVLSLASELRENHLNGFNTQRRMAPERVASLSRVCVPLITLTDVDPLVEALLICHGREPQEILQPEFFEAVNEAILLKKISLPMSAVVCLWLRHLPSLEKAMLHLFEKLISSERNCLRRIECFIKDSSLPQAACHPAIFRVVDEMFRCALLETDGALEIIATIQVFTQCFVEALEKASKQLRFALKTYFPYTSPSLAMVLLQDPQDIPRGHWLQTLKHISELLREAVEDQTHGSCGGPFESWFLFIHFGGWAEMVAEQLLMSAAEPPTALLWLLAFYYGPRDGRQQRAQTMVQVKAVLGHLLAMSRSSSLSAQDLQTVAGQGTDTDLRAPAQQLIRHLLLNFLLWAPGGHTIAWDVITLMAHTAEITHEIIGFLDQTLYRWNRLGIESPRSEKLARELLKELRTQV
Test: cryo-EM structure

binding result: binds
B1: FANCE (natural protein)
chain: MATPDAGLPGAEGVEPAPWAQLEAPARLLLQALQAGPEGARRGLGVLRALGSRGWEPFDWGRLLEALCREEPVVQGPDGRLELKPLLLRLPRICQRNLMSLLMAVRPSLPESGLLSVLQIAQQDLAPDPDAWLRALGELLRRDLGVGTSMEGASPLSERCQRQLQSLCRGLGLGGRRLKSPQAPDPEEEENRDSQQPGKRRKDSEEEAASPEGKRVPKRLRCWEEEEDHEKERPEHKSLESLADGGSASPIKDQPVMAVKTGEDGSNLDDAKGLAESLELPKAIQDQLPRLQQLLKTLEEGLEGLEDAPPVELQLLHECSPSQMDLLCAQLQLPQLSDLGLLRLCTWLLALSPDLSLSNATVLTRSLFLGRILSLTSSASRLLTTALTSFCAKYTYPVCSALLDPVLQAPGTGPAQTELLCCLVKMESLEPDAQVLMLGQILELPWKEETFLVLQSLLERQVEMTPEKFSVLMEKLCKKGLAATTSMAYAKLMLTVMTKYQANITETQRLGLAMALEPNTTFLRKSLKAALKHLGP
